# Test results: the supplement of paper PMC12764529
# ± gives the half width of the 95% confidence interval.
# Columns and labels:
# [1] = folding stability dG unfold from chymotrypsin proteolysis; higher = more stable
# Summary of the method: (§1)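 Unfolding free energy was derived, per protease or combined, against a sequence-predicted unfolded-state K50 and a shared folded-state K50, starting from K50 inferred by Bayesian fitting of sequencing counts. Digestion with trypsin and chymotrypsin was carried out on designed mini-proteins under 80 residues without cysteine in a PA-tagged cDNA display construct. Only designs with AlphaFold2 dimer inter-PAE above 15 were kept.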
# [2] = folding stability dG unfold (combined trypsin and chymotrypsin); higher = more stable
# Summary of the method: as §1
# [3] = folding stability dG unfold from trypsin proteolysis; higher = more stable
# Summary of the method: as §1
Sequence,folding stability dG unfold [1],folding stability dG unfold [2],folding stability dG unfold [3]
SAGGSAGGSAEELAKELAKKLPPGAKFKIEVKTEYYKTKDGKTVKKKVEIKIYNEDGEEVTSAGGSAGGSAG [r3_247_TrROS_Hall],1.1 ± 0.51 kcal/mol,0.679 ± 0.32 kcal/mol,-0.0104 ± 0.19 kcal/mol
SAGGSAGGSAEIKIEYTLAPDGTLYVKVEIPNPETGETLVLEGPFDSLEEAIEVAKELEKESAGGSAGGSAG [r3_174_TrMRF],2.77 ± 0.056 kcal/mol,2.68 ± 0.18 kcal/mol,2.29 ± 0.23 kcal/mol
SAGGSAGGSAEITFNFPNPNGRPYPISIEIEKPKRNPDGKYRYDYKIKVSPGMPKEAAKDLFSAGGSAGGSA [r18_272_TrROS],-0.314 ± 0.33 kcal/mol,-0.351 ± 0.2 kcal/mol,-0.849 ± 0.39 kcal/mol
SAGGSAGGSAEITVEWPNGRPVTVEPDPDSGMYEARFPDGWVVRAPFTNGKIPIDWIPPKDVSAGGSAGGSA [r18_405_TrROS],0.282 ± 0.07 kcal/mol,0.00326 ± 0.08 kcal/mol,-0.578 ± 0.28 kcal/mol
SAGGSAGGSAEIVPVDGKLYVRIEVDGKTYVFEFDSVEELKNATFTLPNGKKVKVEIVPKEDLSAGGSAGGS [r12_730_TrROS_Hall],3.433 ± 0.029 kcal/mol,3.12 ± 0.059 kcal/mol,2.26 ± 0.067 kcal/mol
SAGGSAGGSAEKKKVTIRIVVKPEDVEEILKAIEELLPPGAKATIKVFDKNGELIAEFEFEVSAGGSAGGSA [r18_188_TrROS_Hall],3.09 ± 0.25 kcal/mol,2.86 ± 0.12 kcal/mol,2.5 ± 0.17 kcal/mol
SAGGSAGGSAEKKTITVVVKVDENGKEKTPEELAKELEKAGFKVTKVTWDEENNYVTVTIEASAGGSAGGSA [r18_466_TrROS_Hall],1.11 ± 0.049 kcal/mol,1.4 ± 0.18 kcal/mol,1.72 ± 0.088 kcal/mol
SAGGSAGGSAEKLLIVVEVDTPEQAEALAKALAALLPPGAKITVKPVEVDGKLYLVAEVELSAGGSAGGSAG [r3_92_TrROS_Hall],3.84 ± 0.21 kcal/mol,3.75 ± 0.2 kcal/mol,3.6 ± 0.16 kcal/mol
SAGGSAGGSAEKRIVAKVTEVRENEDGEKTVRVRITLPNGEELEVEVRRVERVGDYLVIELSAGGSAGGSAG [r3_261_TrROS_Hall],1.2 ± 0.048 kcal/mol,1.29 ± 0.089 kcal/mol,1.26 ± 0.037 kcal/mol
SAGGSAGGSAEPEKKYNVKVTFYNPNTGELVLEAEFPNMTIDEVKELAKKLGLEIVKIEVGSAGGSAGGSAG [r3_423_TrMRF],4.43 ± 0.061 kcal/mol,4.48 ± 0.13 kcal/mol,4.37 ± 0.27 kcal/mol
SAGGSAGGSAERTLTITVPAAPGDIPALVAPDGSVYGIGDFEVIPGEGRVELKVTLVKPGDASAGGSAGGSA [r18_116_TrMRF],0.212 ± 0.032 kcal/mol,-0.0227 ± 0.051 kcal/mol,-0.879 ± 0.1 kcal/mol
SAGGSAGGSAETVTITLKVKPGEKVKIVNKKTKKVFEATVKDGYLTITLPKEDITEIKIEKVSAGGSAGGSA [r18_170_TrROS_Hall],2.47 ± 0.019 kcal/mol,2.29 ± 0.09 kcal/mol,1.77 ± 0.05 kcal/mol
SAGGSAGGSAFDPGAPWIIMINIDIEVKKVEIERDPGDGKWEIKRIEITITIDIAIMPAEDMSAGGSAGGSA [r18_137_TrROS],4.11 ± 0.23 kcal/mol,3.88 ± 0.38 kcal/mol,3.42 ± 0.39 kcal/mol
SAGGSAGGSAGAEELAKALAEELNVEVEVEVVEVEEPEVEVTEERRLPPAPEEVTIEEDESAGGSAGGSAGG [r11_753_TrROS_Hall],1.32 ± 0.092 kcal/mol,0.939 ± 0.12 kcal/mol,-0.129 ± 0.074 kcal/mol
SAGGSAGGSAGAEITVEYNPETNVLTVTVKVEFTLPDGTKVERTYRATINADGTITIEPESAGGSAGGSAGG [r11_911_TrROS_Hall],5 ± 0.095 kcal/mol,4.97 ± 0.13 kcal/mol,3.99 ± 0.27 kcal/mol
SAGGSAGGSAGAGSWKDALKASSNETVTIPLPPTGKTLKITFSKSDDGSWKVDIEVFPAESAGGSAGGSAGG [r11_13_TrMRF],2.18 ± 0.079 kcal/mol,2.12 ± 0.15 kcal/mol,2.03 ± 0.13 kcal/mol
SAGGSAGGSAGAPTGFIRVRVEFVTPDGQPAEADFTVPASLVDAVFRAARETGARVSLEGSAGGSAGGSAGG [r11_603_TrMRF],1.65 ± 0.074 kcal/mol,1.2 ± 0.068 kcal/mol,0.504 ± 0.1 kcal/mol
SAGGSAGGSAGAVFTLPDGMKITIEKNEDGTYTITIETDGKTETIEIKPGETIEIEIFPPSAGGSAGGSAGG [r11_164_TrROS_Hall],3.202 ± 0.03 kcal/mol,2.91 ± 0.077 kcal/mol,2.43 ± 0.093 kcal/mol

Sequence,folding stability dG unfold [1],folding stability dG unfold [2],folding stability dG unfold [3]
SAGGSAGGSAGAVLPIKNGWVAVIHMGPDGRVTINIYPPDKPREIEIPVNEPMEIEIFPWSAGGSAGGSAGG [r11_164_TrROS],1.3 ± 0.058 kcal/mol,1.78 ± 0.091 kcal/mol,2.08 ± 0.053 kcal/mol
SAGGSAGGSAGDAPPGATLTLNIELELTLKVVDPSTGELVEERKLRIPLTLTYVLDDDDLSAGGSAGGSAGG [r11_970_TrMRF],4.24 ± 0.13 kcal/mol,3.8 ± 0.43 kcal/mol,3.15 ± 0.42 kcal/mol
SAGGSAGGSAGDFDIKTVKNPPGTLMIVMPDNGWIQQIKFDPKNGKFKIDEIKWIPLDDISAGGSAGGSAGG [r11_352_TrROS],0.602 ± 0.066 kcal/mol,0.585 ± 0.11 kcal/mol,0.499 ± 0.028 kcal/mol
SAGGSAGGSAGDFKIKDVEVERPPGRHRVEIRLPGNKKPIKIDNVPTPDDAEDAVKELLKSAGGSAGGSAGG [r11_183_TrROS],0.975 ± 0.056 kcal/mol,0.683 ± 0.1 kcal/mol,0.0405 ± 0.073 kcal/mol
SAGGSAGGSAGDGWRKASFIIDPNGEILEPIPLPPGVKVEVEPFPGDGMYFVEITIPPDDSAGGSAGGSAGG [r11_32_TrROS],0.684 ± 0.099 kcal/mol,0.378 ± 0.17 kcal/mol,-0.497 ± 0.22 kcal/mol
SAGGSAGGSAGDKGYVMVTFPIEMTQYVYDPDGKPIGQHKHEMPITVMIPPNAAKKLLQASAGGSAGGSAGG [r11_620_TrROS],0.773 ± 0.062 kcal/mol,0.592 ± 0.07 kcal/mol,0.186 ± 0.067 kcal/mol
SAGGSAGGSAGDKRITIWFPVPPGQPPPTLEEIADELPGFEDVDIDVEMYPNGYYRITIESAGGSAGGSAGG [r17_205_TrROS],1.05 ± 0.14 kcal/mol,0.966 ± 0.078 kcal/mol,0.812 ± 0.047 kcal/mol
SAGGSAGGSAGDLLKEAVEEAKDSGHPNVPIRFNFPGGTIRITVKVDPKNGKVEIKVEPVSAGGSAGGSAGG [r17_475_TrROS],0.445 ± 0.1 kcal/mol,0.645 ± 0.29 kcal/mol,0.674 ± 0.12 kcal/mol
SAGGSAGGSAGDNKPKPIKIRIESYYPNGKKQEHDFEVPDPEDLDELAKTNPGYKIDEIESAGGSAGGSAGG [r11_802_TrROS],0.821 ± 0.056 kcal/mol,0.478 ± 0.12 kcal/mol,-0.258 ± 0.057 kcal/mol
SAGGSAGGSAGDNWVIRIWWPNGKEQVFPGNLEDLLERIPPDNKDMKVEIFDPDDGKEIWSAGGSAGGSAGG [r11_353_TrROS],1.01 ± 0.17 kcal/mol,1.1 ± 0.17 kcal/mol,1.09 ± 0.043 kcal/mol
SAGGSAGGSAGDPGERPYVEVTVRIPITPGLEIPWWIPPENMPPEDAEKFAQDIAKEFLDSAGGSAGGSAGG [r11_409_TrROS],-0.482 ± 0.17 kcal/mol,0.426 ± 0.11 kcal/mol,0.889 ± 0.047 kcal/mol
SAGGSAGGSAGDPGQELMFMWIWPWPNPDGQPWVRIFMWSVRVDDGKIKEIEPTTMWIPLSAGGSAGGSAGG [r11_35_TrROS],3.774 ± 0.032 kcal/mol,3.55 ± 0.26 kcal/mol,3.08 ± 0.17 kcal/mol
SAGGSAGGSAGDSPSTPVLVTETFTFPVTVTAPNEGGYSTTTSTVTVTVTLEVYVSPSFPSAGGSAGGSAGG [r17_186_JUSTAS],2.92 ± 0.04 kcal/mol,2.62 ± 0.061 kcal/mol,2.2 ± 0.053 kcal/mol
SAGGSAGGSAGDTLILVRNEDGRLYLIRVRAYRVPGEDGSLVFEVEIVEFPSLEEALAALSAGGSAGGSAGG [r11_967_TrROS_Hall],4.825 ± 0.039 kcal/mol,4.66 ± 0.051 kcal/mol,4.05 ± 0.065 kcal/mol
SAGGSAGGSAGEEVILRIKVKLKNGEERTIEINMTLDELLAELPENVTEIKIEAIPKEDLSAGGSAGGSAGG [r11_596_TrROS_Hall],1.54 ± 0.017 kcal/mol,1.46 ± 0.079 kcal/mol,1.29 ± 0.052 kcal/mol
SAGGSAGGSAGEKEITISILVKGEDGRLYAIKMKAKITFDEKTNELKIEIEEISITPLPPSAGGSAGGSAGG [r17_129_TrROS_Hall],4.29 ± 0.16 kcal/mol,4.32 ± 0.23 kcal/mol,3.98 ± 0.21 kcal/mol
SAGGSAGGSAGEKPVYYARVTEVKYNPENKELEIKLENGETITLSLEELKSLKPGDIIRISAGGSAGGSAGG [r11_124_TrROS_Hall],2 ± 0.023 kcal/mol,1.97 ± 0.065 kcal/mol,1.88 ± 0.057 kcal/mol
